Positions count from the first letter of the chain named.
B1: anfibatide (natural protein)
chain 1: DVDCLPGWSAYDQSCYRVFKLLKTWDDAEKFCTERPKGGHLVSIESAGERDFVAQLVSENKQTDNVWLGLKIQSKGQQCSTEWTDGSSVSYENFSEYQSKKCFVLEKNTGFRTWLNLNCGSEYAFVCKSPP
chain 2: GFCCPLRWSSYEGHCYLVVKEKKTWDDAEKFCTEQRKGGHLVSVHSREEADFLVHLAYPILDLSLIWMGLSNMWNDCKREWSDGTKLDFKAWAKTSDCLIGKTDGDNQWLNMDCSKKHYFVCKFKL
notes: anfibatide (agkisacucetin) alpha-subunit, snaclec of Deinagkistrodon acutus venom; disulfide-linked to the beta-subunit; anfibatide (agkisacucetin) beta-subunit, snaclec of Deinagkistrodon acutus venom; disulfide-linked to the alpha-subunit; Disulfide-linked alpha-beta heterodimer; MALDI-TOF single peak at m/z 29,799.7; also called agkisacucetin
B2: GPIbαN-Long WT (domain or fragment)
chain: HPHPICEVSKVASHLEVNCDKRNLTALPPDLPKDTTILHLSENLLYTFSLATLMPYTRLTQLNLDRCELTKLQVDGTLPVLGTLDLSHNQLQSLPLLGQTLPALTVLDVSFNRLTSLPLGALRGLGELQELYLKGNELKTLPPGLLTPTPKLEKLSLANNNLTELPAGLLNGLENLDTLLLQENSLYTIPKGFFGSHLLPFAFLHGNPWLCNCEILYFRRWLQDNAENVYVWKQGVDVKAMTSNVASVQCDNSDKFPVYKYPGKGCPTLGDEGDTDLYDYYPEEDTEGDK
modifications: sulfotyrosine at 276, 278, 279 (post translational sulfation that normally occurs at these positions)
B3: GPIbαN-Long 3Y/F (domain or fragment)
chain: B2 chain with Y278F, Y280F, Y281F
modifications: no Tyr sulfation at mature 276, 278, 279 (Tyr to Phe). Mature residue 1 = precursor 17 with no residue 0, so -2 = precursor 15. Disulfide-linked dimer through terminal Cys of the C-terminal …

How the values were obtained:
GPIbα (Homo sapiens) = GPIbα (Homo sapiens) (UniProt P07359); settings: cited from earlier work
[1] = target: T1, GPIbα on human washed platelets (human (endogenous in platelets), UniProt P07359 17-652); experiment: flow cytometry on cells; competition on human washed platelets (2 x 10^7/mL, modified Tyrode's buffer pH 7.4, room temperature, 30 min); ligand: VWF A1 domain at 1.5 nM with FITC anti-VWF mAb; anfibatide 0-200 nM added 5 min before; Ki by Cheng-Prusoff; settings: one partner purified
T1 construct: human platelet glycoprotein Ibα, endogenous on the platelet surface; also called platelet GPIbα; glycoprotein (GP) Ibα; source: endogenous, washed platelets of healthy human volunteers

[2] = target: T1, GPIbα on human washed platelets; experiment: flow cytometry on cells; competition on human washed platelets (2 x 10^7/mL, modified Tyrode's buffer pH 7.4, room temperature, 30 min); ligand: BP-αFIIa at 80 nM with streptavidin-PE; anfibatide 0-200 nM added 5 min before; Ki by Cheng-Prusoff; settings: one partner purified
[3] = target: T1, GPIbα on human washed platelets; experiment: flow cytometry on cells; competition on human washed platelets (2 x 10^7/mL, modified Tyrode's buffer pH 7.4, room temperature, 30 min); ligand: FITC-conjugated mAb LJ-Ib10 at 10 nM; anfibatide 0-200 nM added 5 min before; Ki by Cheng-Prusoff; settings: one partner purified
anfibatide = target: B1; experiment: SPR; GPIbαN-Long captured by immobilised anti-SV40 mAb LJ-3A2 on an HC200M chip; anfibatide injected at increasing concentrations, 75 μL/min for 3 min; Biacore 3000; 135 mM NaCl, 20 mM HEPES pH 7.4, 0.005% Tween 20; steady-state mass ratios fit to a one-site model; settings: both partners purified

VWF (from UniProt P04275)
Kd (GPIbα (Homo sapiens)): 1.5 nM

B1
Ki [1]: 1.2 ± 0.5 nM
Ki [2]: 1.4 ± 0.1 nM
Ki [3]: 3.4 ± 1.1 nM

B2
Kd (anfibatide): 21 ± 0.9 nM

B3
Kd (anfibatide): 90.5 ± 9.2 nM
